Tests used:
[1] = target: T1, human CD8 alpha (CD8A) on primary human CD8+ T cells (human, UniProt P01732 22-235); experiment: flow cytometry, human CD8+ T cells, 2 uM
T1 construct: whole, on cells
Experimental: (§1) Binding of the 190 ELISA hits to human and cynomologous monkey primary CD8 T cells was assessed by flow cytometry. The FN3 domain molecules were diluted to 2 μM and 0.2 μM in PBS and incubated with human or cynomologous monkey CD8+ T cells in 96-well format. After 1 hour at 4° C., the cells were washed once with PBS and then resuspended with an anti-FN3 domain antibody (PAB25) solution. Following this incubation, the cells were washed twice with PBS and a PE conjugated secondary antibody and a viability dye were added. Finally, cells were washed and resuspended in PBS for flow cytometric analysis using a BD Canto Instrument. Cells were gating on live cells and median fluorescence intensity of the bound Centyrins (PE channel) was calculated using Cytobank software.

[2] = target: T2, cynomolgus monkey CD8A on primary cynomolgus CD8+ T cells (cynomolgus monkey, UniProt P01732 23-235 (human entry)); experiment: flow cytometry, cyno CD8+ T cells, 0.2 uM
T2 construct: also called Cyno CD8alpha
T2 sequence (P01732 other isoform, or with tags, fused parts or gaps limits assumed): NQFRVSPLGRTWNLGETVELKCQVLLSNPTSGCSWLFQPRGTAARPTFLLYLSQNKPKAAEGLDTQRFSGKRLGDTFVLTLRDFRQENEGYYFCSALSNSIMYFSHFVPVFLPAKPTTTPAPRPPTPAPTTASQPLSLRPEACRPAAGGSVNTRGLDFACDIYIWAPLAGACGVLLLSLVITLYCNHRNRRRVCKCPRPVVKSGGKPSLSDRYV
Experimental: as §1

[3] = target: T2, cynomolgus monkey CD8A on primary …; experiment: flow cytometry, cyno CD8+ T cells, 2 uM
Experimental: as §1

[4] = target: T1, human CD8 alpha (CD8A) on primary human …; experiment: flow cytometry, human CD8+ T cells, 0.2 uM
Experimental: as §1

T1 sequence (P01732 22-235): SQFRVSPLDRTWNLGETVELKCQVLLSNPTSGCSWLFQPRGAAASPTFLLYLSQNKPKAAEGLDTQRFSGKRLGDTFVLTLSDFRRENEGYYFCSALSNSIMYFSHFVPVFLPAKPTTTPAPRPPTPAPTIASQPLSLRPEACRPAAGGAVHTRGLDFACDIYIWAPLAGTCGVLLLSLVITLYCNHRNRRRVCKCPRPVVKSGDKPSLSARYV

Human T-cell Binding 2 uM (MFI) [1]: 341 MFI
Cyno T-cell Binding 0.2 uM (MFI) [2]: 336 MFI
Cyno T-cell Binding 2 uM (MFI) [3]: 337 MFI
Human T-cell Binding 0.2 uM (MFI) [4]: 219 MFI
B1: Tencon25-His (designed binder, not shown: small tags and cut ends)
chain: LPAPKNLVVSEVTEDSARLSWTAPDAAFDSFLIQYQESEKVGEAIVLTVPGSERSYDLTGLKPGTEYTVSIYGVKGGHRSNPLSAIFTT
notes: kd not given

— patent US20240301033A1 (published 2024)
